Source: US5622828

Legend:
Assay in all cases: filter
[1] = system: immunoglobulin G (IgG) (Homo sapiens); settings: 2'-NH2 all C and U, TBSC
[2] = target: T1, secretory phospholipase A2 (sPLA2) (Homo sapiens) (UniProt P14555); settings: TBSC, 37 C
T1 sequence: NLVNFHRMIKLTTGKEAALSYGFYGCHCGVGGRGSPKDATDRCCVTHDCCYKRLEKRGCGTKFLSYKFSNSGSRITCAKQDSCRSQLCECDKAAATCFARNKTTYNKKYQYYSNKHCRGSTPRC

[3] = target: T2, neutrophil elastase (Homo sapiens) (UniProt P08246); settings: 2'-NH2 all C and U; random pool; TBSC
T2 sequence: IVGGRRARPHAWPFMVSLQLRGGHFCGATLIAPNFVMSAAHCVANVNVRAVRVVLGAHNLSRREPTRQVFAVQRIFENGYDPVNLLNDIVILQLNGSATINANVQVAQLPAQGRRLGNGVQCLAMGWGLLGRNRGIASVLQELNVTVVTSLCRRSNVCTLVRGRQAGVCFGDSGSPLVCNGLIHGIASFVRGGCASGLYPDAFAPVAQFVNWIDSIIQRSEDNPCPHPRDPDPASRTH

[4] = target: basic fibroblast growth factor (bFGF) (Homo sapiens) (UniProt P09038); settings: random pool, TBSC
[5] = target: C1q (printed Clq) (Homo sapiens) (UniProt P02745+P02746+P02747); settings: 2'-NH2 all C and U; random pool; TBSC
[6] = target: pancreatic phospholipase A2 (bpPLA2) (Bos taurus) (UniProt P00593); settings: random pool; TBSC
[7] = target: lysozyme (egg white) (Gallus gallus) (UniProt P00698); settings: random pool; TBSC
[8] = 2'-NH2 all C and U, random starting pool

Sequence of basic fibroblast growth factor (bFGF) (Homo sapiens) (P09038 143-288): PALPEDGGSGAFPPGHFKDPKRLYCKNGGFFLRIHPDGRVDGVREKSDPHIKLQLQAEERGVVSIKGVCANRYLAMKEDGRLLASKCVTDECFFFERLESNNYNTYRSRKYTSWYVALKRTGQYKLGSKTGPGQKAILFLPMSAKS
Sequence of lysozyme (egg white) (Gallus gallus) (P00698 19-147): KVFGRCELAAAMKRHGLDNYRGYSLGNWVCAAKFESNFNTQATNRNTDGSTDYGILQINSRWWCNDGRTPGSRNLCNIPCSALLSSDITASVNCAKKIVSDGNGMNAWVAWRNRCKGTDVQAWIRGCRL
Sequence of pancreatic phospholipase A2 (bpPLA2) (Bos taurus) (P00593 23-145): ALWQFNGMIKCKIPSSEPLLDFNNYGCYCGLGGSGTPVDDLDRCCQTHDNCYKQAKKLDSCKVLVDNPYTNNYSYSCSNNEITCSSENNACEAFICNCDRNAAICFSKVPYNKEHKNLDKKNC
Sequence of C1q (printed Clq) (Homo sapiens) (P02745 23-245, chain 1 of 3): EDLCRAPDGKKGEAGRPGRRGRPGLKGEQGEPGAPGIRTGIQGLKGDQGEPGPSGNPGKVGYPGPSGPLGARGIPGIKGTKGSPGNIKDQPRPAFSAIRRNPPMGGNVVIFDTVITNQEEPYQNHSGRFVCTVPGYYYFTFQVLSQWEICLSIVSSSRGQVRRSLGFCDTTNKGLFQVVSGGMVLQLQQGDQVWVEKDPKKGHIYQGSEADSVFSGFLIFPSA
Sequence of C1q (printed Clq) (Homo sapiens) (P02746 28-253, chain 2 of 3): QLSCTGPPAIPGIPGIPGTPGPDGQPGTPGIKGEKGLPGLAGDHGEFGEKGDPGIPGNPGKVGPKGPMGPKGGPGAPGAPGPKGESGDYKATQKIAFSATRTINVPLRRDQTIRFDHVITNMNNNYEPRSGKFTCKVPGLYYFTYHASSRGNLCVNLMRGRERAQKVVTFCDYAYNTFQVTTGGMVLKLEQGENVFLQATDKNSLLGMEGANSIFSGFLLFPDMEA
Sequence of C1q (printed Clq) (Homo sapiens) (P02747 29-245, chain 3 of 3): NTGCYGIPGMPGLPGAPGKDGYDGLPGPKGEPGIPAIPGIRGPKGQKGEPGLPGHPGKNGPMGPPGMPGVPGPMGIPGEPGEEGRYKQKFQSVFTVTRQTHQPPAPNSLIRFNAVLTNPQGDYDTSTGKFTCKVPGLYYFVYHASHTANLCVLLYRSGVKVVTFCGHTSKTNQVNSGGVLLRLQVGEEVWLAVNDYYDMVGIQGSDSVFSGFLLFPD

Sequence: GGGAAAAGCGAAUCAUACACAAGACCGGCCGGCGCCAUAGCCGAGAUCCGAGGUGUUGAACGAUAACUCGGUGCUCCGCCAGAGACCAACCGAGAA [NN19]
- Kd ([1]; specificity control): > 5 µM

Sequence: GGGAGCUCAGAAUAAACGCUCAAGANCUCUGCUUACAGCCCGGCUGGGACACUUCGACAUGAGGCCCGGAUCCGGC [75t (75)]
- Kd ([2]; biphasic, Kd2 420 nM, mole fraction 0.40): 0.0009 µM

Sequence: GGGAAAAGCGAAUCAUACACAAGANNNNNNNNNNNNNNNNNNNNNNNNNNNNNNNNNNNNNNNNNNNNNNNNNNGCUCCGCCAGAGACCAACCGAGAA [50N9 random RNA]
- Kd [3]: 0.07 µM
- Kd ([4]; 2'-NH2 all C and U): 0.17 µM
- Kd ([1]; random pool): > 5 µM
- Kd [2, 8]: 0.048 µM
- Kd [5]: 1 µM

Sequence: GGGAGCUCAGAAUAAACGCUCAANNNNNNNNNNNNNNNNNNNNNNNNNNNNNNUUCGACAUGAGGCCCGGAUCCGGC [30N1F random RNA]
- Kd ([2]; 2'-F all C and U, random 2'-F pool): 0.035 µM

Sequence: GGGAGGACGAUGCGGNNNNNNNNNNNNNNNNNNNNNNNNNNNNNNNNNNNNNNNNNNNNNNNNNNCAGACGACUCGCCCGA [50N7 random RNA]
- Kd [2, 8]: 0.071 µM

Sequence: GGGAGCUCAGAAUAAACGCUCAANNNNNNNNNNNNNNNNNNNNNNNNNNNNNNUUCGACAUGAGGCCCGGAUCCGGC [30N1 random RNA]
- Kd [6]: 22.5 µM
- Kd [4]: 0.27 µM
- Kd ([2]; random pool, text of Example 2 gives 240 nM): 0.36 µM
- Kd [7]: 1.65 µM

Sequence: GGGAAAAGAAGACCGGCCGGCGCCAUAGCCGAGAUCCGAGGUGUUGCCGAGAA [NN19.15]
- Kd ([1]; specificity control, like random RNA): 4.3 µM
